From the supplement of paper PMC9732359
± gives the uncertainty stated by the source.

Test: protein stability index of a GFP-peptide fusion (yeast GPS) (PSI 1-4); higher = more stable; sorted into four equal gates, so the index is relative within each strain
Procedure, shortened: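 Tiled 17-residue peptides from yeast proteins were fused downstream of GFP on a plasmid that also expresses Cherry, and the pooled library was carried in yeast. Mid-log cultures grown in leucine-free medium were sorted into four equal gates by GFP/Cherry fluorescence ratio. Plasmids from each gate were PCR-amplified and Illumina-sequenced, and reads were assigned to strains by barcodes. Each peptide's protein stability index is the sum, over gates, of the gate's read frequency multiplied by its gate number.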

Row | Sequence | protein stability index (doa10∆) | protein stability index (pdr5∆) | protein stability index (san1∆) | protein stability index (ubr1∆)
1 | RVKDIHLRKLLDGELDF [RET1] | 2.87 ± 0.06 | 2.93 ± 0.062 | 3.03 ± 0.066 | 3.02 ± 0.041
2 | PLQGIFHNAVFNSFRRF [QCR8] | 2.67 ± 0.064 | 2.47 ± 0.048 | 2.38 ± 0.054 | 1.96 ± 0.031
3 | PKKFGGKGARSRFQKSY [RPS16A] | 3.22 ± 0.12 | 3.31 ± 0.11 | 3.31 ± 0.13 | 2.93 ± 0.1
4 | NLPEHIVPGTYIQERNP [RPS10A] | 2.64 ± 0.069 | 2.62 ± 0.068 | 2.7 ± 0.047 | 2.68 ± 0.045
5 | SYYGIVCLMQISTRERD [RRP6] | 1.96 ± 0.12 | 1.41 ± 0.081 | 1.21 ± 0.16 | 1.39 ± 0.09
6 | CSSATVPKHMLDKLDEI [AAR2] | 2.79 ± 0.069 | 3.05 ± 0.088 | 2.98 ± 0.08 | 3.2 ± 0.067
7 | SNESQNGKDSEIMYTGV [SMC3] | 3.46 ± 0.14 | 3.13 ± 0.27 | 3.03 ± 0.19 | –
8 | RENGKGGQIAHILFQNN [ROX3] | 1.88 ± 0.062 | 2.32 ± 0.06 | 2.75 ± 0.061 | 2.48 ± 0.12
9 | VFLEFSLNFIPITASTS [YML103C/NUP188] | 1.27 ± 0.068 | 1.34 ± 0.049 | 1.62 ± 0.097 | 1.48 ± 0.038
10 | KDAISFIKEIHKSIELI [YCS4] | 2 ± 0.066 | 2.81 ± 0.065 | 3.17 ± 0.055 | 2.69 ± 0.037
11 | KCQELVTNIRRIIQDNI [RRP46] | 2.5 ± 0.15 | 2.81 ± 0.1 | 3.08 ± 0.25 | 1.94 ± 0.11
12 | EAEMAYVKAVSDKAQLN [SMC4] | 2.62 ± 0.062 | 2.33 ± 0.052 | 2.2 ± 0.072 | 2.26 ± 0.05
13 | AALAPKIGPLGLSPKKV [RPL12A] | 2.66 ± 0.13 | 3.08 ± 0.097 | 3.02 ± 0.097 | 3.26 ± 0.07
14 | ISNYNTKYTDDMATGSN [SRB8] | 3.04 ± 0.1 | 2.52 ± 0.11 | 3.21 ± 0.058 | 2.94 ± 0.085
15 | PMETLLSGLSADKPFTR [YML031W/NDC1] | 2.91 ± 0.05 | 3.04 ± 0.05 | 2.94 ± 0.037 | 2.85 ± 0.034
16 | KIKHGSVTEIPLKLSGE [YMR129W/POM152] | 2.77 ± 0.07 | 2.93 ± 0.057 | 2.58 ± 0.072 | 2.97 ± 0.086
17 | KKSRSNLSQENDNEGKH [YAR002W/NUP60] | 2.77 ± 0.058 | 3.12 ± 0.052 | 2.91 ± 0.049 | 3.11 ± 0.044
18 | NDNIGANRSRFNNEAPP [SMB1] | 2.64 ± 0.076 | 3.02 ± 0.047 | 2.54 ± 0.065 | 3.01 ± 0.067
19 | HLRKLLDGELDFDDFLK [RET1] | 3.04 ± 0.16 | 2.95 ± 0.1 | 2.81 ± 0.12 | 2.99 ± 0.092
20 | QSNINTNAPLRTLNIQP [YIL149C/MLP2] | 2.61 ± 0.11 | 2.36 ± 0.09 | 1.99 ± 0.086 | 2.19 ± 0.076
21 | ILVLALEDLKDVYASKV [PRP8] | 2.29 ± 0.064 | 1.8 ± 0.057 | 2.85 ± 0.081 | 2.21 ± 0.066
22 | IKELEHLHDAVFVNTGL [SWP82] | 2.94 ± 0.067 | 2.9 ± 0.058 | 3.06 ± 0.059 | 2.91 ± 0.05
23 | PSAGPHKLRESLPLIVF [RPS4A] | 1.76 ± 0.048 | 1.75 ± 0.045 | 1.69 ± 0.087 | 2.05 ± 0.046
24 | DRVKVIECFKPGDIVRA [CSL4] | 2.66 ± 0.13 | 2.39 ± 0.14 | 2.1 ± 0.18 | 2.36 ± 0.16
25 | GLIAARRTGLLRGSQKT [RPL2A] | 3.04 ± 0.12 | 3.08 ± 0.11 | 2.88 ± 0.11 | 2.78 ± 0.11
26 | LKIYAQIEKKEIKKMII [YCG1] | 3.06 ± 0.059 | 2.8 ± 0.051 | 2.89 ± 0.057 | 3.01 ± 0.07

Row | Sequence | protein stability index (doa10∆) | protein stability index (pdr5∆) | protein stability index (san1∆) | protein stability index (ubr1∆)
27 | GRRWNELRRFESSINTH [SKI6] | – | 2.66 ± 0.12 | 2.01 ± 0.13 | 2.41 ± 0.13
28 | RKFKSRRCDDMLYYIQN [POP4] | 2.74 ± 0.069 | 2.98 ± 0.088 | 2.81 ± 0.062 | 2.85 ± 0.048
29 | IARLYSCISISDIISML [RRI2] | 1.37 ± 0.061 | 1.35 ± 0.05 | 1.24 ± 0.093 | 1.17 ± 0.029
30 | AFDKHMNLVLNECIEER [SMB1] | 2.06 ± 0.14 | 2.34 ± 0.19 | 2.68 ± 0.16 | 2.56 ± 0.051
31 | SAPIYVDIEYTRGRNII [RET1] | 2.42 ± 0.11 | 2.51 ± 0.12 | 2.88 ± 0.064 | 2.86 ± 0.1
32 | KQENSTLLKKANRDDVK [RPC82] | 2.72 ± 0.085 | 2.51 ± 0.13 | 3.16 ± 0.22 | 3.12 ± 0.09
33 | TVQSWLCDLFVNGSITD [NUT1] | 1.46 ± 0.038 | 1.45 ± 0.048 | 1.48 ± 0.086 | 1.23 ± 0.043
34 | LRNNLNSLIEEINERSE [YCG1] | 3.13 ± 0.094 | 3.31 ± 0.095 | 2.96 ± 0.075 | 3.01 ± 0.073
35 | LCEEYLVNNGQSDLEHD [RPN7] | 2.78 ± 0.11 | 2.63 ± 0.11 | 2.66 ± 0.081 | 2.48 ± 0.12
36 | DAAEEEKEEEAKEESDD [RPP2B] | 2.88 ± 0.3 | 3.22 ± 0.14 | 3.09 ± 0.3 | 3.41 ± 0.078
37 | RIIGLSATLPNYEDVGR [BRR2] | 2.23 ± 0.045 | 2.18 ± 0.039 | 2.33 ± 0.044 | 1.94 ± 0.039
38 | INCNKETIENVKLQMIK [ECM29] | 3.21 ± 0.097 | 3.03 ± 0.16 | 2.93 ± 0.089 | 3.4 ± 0.13
39 | MKYLAAYLLLVQGGNAA [RPP2B] | 1.53 ± 0.051 | 1.78 ± 0.038 | 1.78 ± 0.069 | 2 ± 0.065
40 | MKYLAAYLLLNAAGNTP [RPP2A] | 1.88 ± 0.031 | 2.05 ± 0.033 | 1.9 ± 0.05 | 2.32 ± 0.036
41 | ATEKKSSSPLAMSETLS [PRE8] | 2.33 ± 0.076 | 2.77 ± 0.068 | 2.44 ± 0.1 | 2.39 ± 0.055
42 | NLLHSYMEKGTQLDDLQ [YML103C/NUP188] | 2.63 ± 0.056 | 2.49 ± 0.053 | 2.35 ± 0.052 | 2.32 ± 0.034
43 | LKTKLLEEVEGSCTGKF [RPB7] | 3.53 ± 0.29 | 2.84 ± 0.22 | – | –
44 | DEVDAIGGRRFSEGTSA [RPT4] | 2.72 ± 0.086 | 2.67 ± 0.083 | 2.48 ± 0.1 | 2.35 ± 0.09
45 | DKIPLNYAMTRNILHNT [SRB5] | 1.82 ± 0.057 | 2.34 ± 0.057 | 1.83 ± 0.081 | 1.93 ± 0.035
46 | VLPNTALKTSIQHVGMI [FAS1] | 2.95 ± 0.12 | 2.6 ± 0.16 | 1.93 ± 0.14 | 2.4 ± 0.24
47 | NIKTSEWDLYPQGFSSV [REC8] | 2.91 ± 0.26 | 2.82 ± 0.2 | – | –
48 | TSPEKKDGGDKPPSSAF [YAR002W/NUP60] | 3.42 ± 0.13 | 3.34 ± 0.075 | 3.3 ± 0.081 | 3.72 ± 0.11
49 | RISEKSVRKFLEIALFK [RPO31] | 1.93 ± 0.14 | 1.15 ± 0.13 | – | –
50 | MVRLKSRYILFEIIFPP [POP5] | 1.47 ± 0.067 | 1.42 ± 0.054 | 1.52 ± 0.084 | 1.5 ± 0.047
51 | PHLLKQGLAMVEKYAPD [RRP42] | 2.02 ± 0.13 | 2.35 ± 0.11 | – | –
52 | LAEEVVDNIVNKYQYSL [SRP68] | 3.09 ± 0.069 | 2.98 ± 0.069 | 2.82 ± 0.056 | 2.92 ± 0.046
